Measurements published in patent publication US20250270343A1 (Alector, published 2025).
Substitutions are numbered along the chain they refer to.

T1: full-length untagged human GPNMB expressed on cells (human, UniProt Q14956 23-572)
T1 sequence: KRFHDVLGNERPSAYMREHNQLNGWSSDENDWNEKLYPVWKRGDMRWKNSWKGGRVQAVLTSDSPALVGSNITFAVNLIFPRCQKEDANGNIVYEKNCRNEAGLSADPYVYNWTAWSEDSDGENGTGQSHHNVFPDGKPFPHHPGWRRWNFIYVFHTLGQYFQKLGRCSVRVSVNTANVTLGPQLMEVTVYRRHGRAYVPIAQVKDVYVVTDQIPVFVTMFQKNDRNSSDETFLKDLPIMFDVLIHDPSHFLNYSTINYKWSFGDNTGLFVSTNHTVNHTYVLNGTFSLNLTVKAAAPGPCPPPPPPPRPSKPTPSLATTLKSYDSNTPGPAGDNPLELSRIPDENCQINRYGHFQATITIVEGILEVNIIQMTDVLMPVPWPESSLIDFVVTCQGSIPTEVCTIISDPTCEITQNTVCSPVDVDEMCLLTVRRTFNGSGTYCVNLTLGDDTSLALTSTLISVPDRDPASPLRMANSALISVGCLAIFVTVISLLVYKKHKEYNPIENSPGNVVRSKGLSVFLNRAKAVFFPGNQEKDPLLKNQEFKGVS

T2: soluble human GPNMB (recombinant extracellular domain) (human, UniProt Q14956 23-498)
T2 construct: also called huGPNMB; recombinant human GPNMB extracellular domain; not shown: C-terminal polyhistidine or Avi-His tag
T2 sequence: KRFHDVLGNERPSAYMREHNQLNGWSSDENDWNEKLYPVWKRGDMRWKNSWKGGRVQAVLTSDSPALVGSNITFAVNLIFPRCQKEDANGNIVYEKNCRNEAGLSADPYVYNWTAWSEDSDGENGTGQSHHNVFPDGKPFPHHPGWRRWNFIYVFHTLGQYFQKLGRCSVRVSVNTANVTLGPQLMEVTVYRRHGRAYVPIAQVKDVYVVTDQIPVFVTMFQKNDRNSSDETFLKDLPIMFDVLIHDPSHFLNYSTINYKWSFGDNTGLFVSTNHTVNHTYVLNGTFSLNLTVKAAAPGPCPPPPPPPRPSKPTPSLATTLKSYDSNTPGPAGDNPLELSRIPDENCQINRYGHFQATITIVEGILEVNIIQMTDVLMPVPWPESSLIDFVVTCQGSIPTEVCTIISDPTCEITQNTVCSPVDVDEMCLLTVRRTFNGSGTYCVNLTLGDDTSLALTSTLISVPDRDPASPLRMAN

T3: soluble cynomolgus GPNMB (recombinant extracellular domain) (cynomolgus, UniProt Q14956 23-499 (human entry), limits assumed)
T3 chain: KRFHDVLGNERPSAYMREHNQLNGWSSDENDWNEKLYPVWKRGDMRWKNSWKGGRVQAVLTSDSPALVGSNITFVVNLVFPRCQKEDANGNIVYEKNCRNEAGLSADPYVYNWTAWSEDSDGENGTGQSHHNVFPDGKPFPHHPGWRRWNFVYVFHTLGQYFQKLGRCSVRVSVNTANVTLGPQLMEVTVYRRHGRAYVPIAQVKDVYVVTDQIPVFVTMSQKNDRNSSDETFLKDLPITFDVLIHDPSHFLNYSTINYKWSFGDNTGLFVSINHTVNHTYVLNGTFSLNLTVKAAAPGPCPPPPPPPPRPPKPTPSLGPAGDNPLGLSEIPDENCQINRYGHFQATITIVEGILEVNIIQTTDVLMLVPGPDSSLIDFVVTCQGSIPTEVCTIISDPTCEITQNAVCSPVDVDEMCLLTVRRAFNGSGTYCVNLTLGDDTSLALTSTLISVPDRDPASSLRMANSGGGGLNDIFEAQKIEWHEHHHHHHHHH

T4: soluble mouse GPNMB (recombinant extracellular domain) (mouse, UniProt Q99P91 23-502)
T4 construct: also called moGPNMB; not shown: C-terminal polyhistidine or Avi-His tag
T4 sequence: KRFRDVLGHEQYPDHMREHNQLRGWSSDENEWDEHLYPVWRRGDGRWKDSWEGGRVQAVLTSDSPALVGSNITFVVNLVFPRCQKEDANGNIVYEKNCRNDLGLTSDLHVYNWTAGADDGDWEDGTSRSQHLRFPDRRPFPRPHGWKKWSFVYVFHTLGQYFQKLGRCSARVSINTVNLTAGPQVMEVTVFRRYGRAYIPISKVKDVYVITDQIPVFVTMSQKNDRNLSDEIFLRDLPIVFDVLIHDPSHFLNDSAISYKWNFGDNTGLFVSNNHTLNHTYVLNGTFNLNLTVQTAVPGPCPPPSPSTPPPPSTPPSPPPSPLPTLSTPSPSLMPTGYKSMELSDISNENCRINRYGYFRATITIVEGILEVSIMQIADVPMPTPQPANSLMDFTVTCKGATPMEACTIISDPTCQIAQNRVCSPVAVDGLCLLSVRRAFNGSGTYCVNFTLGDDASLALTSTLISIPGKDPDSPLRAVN

T5: soluble mouse GPNMB-Fc polypeptide (Fc of human IgG1 or mouse IgG2A, not specified for the assay) (mouse, UniProt Q99P91 23-502)
T5 construct: extracellular domain; also called moGPNMB-Fc; mGPNMB; not shown: Fc region of human IgG1 or mouse IgG2A; in the Fab2 assay detected with anti-human IgG1 secondary antibody
T5 sequence (looked up): T4 sequence

B1: anti-GPNMB antibody GPN-97 (antibody, V domains shown)
VH: QVQLVQSGAEVKKPGASVKVSCKASGYTFTSYWMHWVRQAPGQGLEWMGEINPYDQRTNYAQKFQGRVTMTVDKSTSTVYMELSSLRSEDTAVYYCARSTGNYAWFAYWGQGTLVTVSS
VL: DIVMTQSPDSLAVSLGERATINCKTSQDVSPSLAWYQQKPGQPPKLLIYSGSYRYTGVPDRFSGSGSGTDFTLTISSLQAEDVAVYYCQQHYSIPLTFGGGTKVEIK
B2: anti-GPNMB antibody GPN-98 (antibody, V domains shown)
VH: B1 VH
VL: B1 VL with T25A, G51A
B3: recombinant Fab2 fragment of anti-GPNMB antibody GPN-52 (other)
VH: DVQLQESGPGLVKPSQTVFLTCTVTGISITTGNYRWSWIRQFPGNKLEWIGYIYYSGTITYNPSLTSRITITRDTPKNEFFLEMNSLTAEDTATYYCARDLTHWYFDVWGTGTTVTVSS
VL: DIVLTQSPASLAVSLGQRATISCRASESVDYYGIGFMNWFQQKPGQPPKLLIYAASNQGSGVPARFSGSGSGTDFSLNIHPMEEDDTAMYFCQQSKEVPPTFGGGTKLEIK
notes: also called GPN-52 Fab2
B4: recombinant Fab2 fragment of anti-GPNMB antibody GPN-43 (other)
VH: EVQLQQSGPELVKPGASVKISCKASGYTFTDYYMNWVRQSHGKSLEWIGDINPYHGGSTYNQKIKVKATLTVDKSSSTAYMELRSLTSEDSAVYYCARNWPYFDYWGQGTTLTVSS
VL: DIQMTQSPASLSASVGETVTITCRASENIYSFLVWYQQKQGKSPQLLVYNAKTLAEGVPSRFSGSGSGTQFSLKISSLQPEDFGSYYCQHHFGTPPYTFGGGTKLEIK
notes: also called GPN-43 Fab2
B5: recombinant Fab2 fragment of anti-GPNMB antibody GPN-48 (other)
VH: QVQLQQSGPELVKPGASVKLSCRASGYGFSSFWMNWVKQRPGKGLEWIGRIYPGKGDTLYNGKFKDKATLTADESSSTAYMQLSSLTSEDSAVYFCARSIYYYDYWYFDVWDTGTTVTVSS
VL: DIVMTQSHKFMSTSVGDRVNITCKASQDVNSAIAWYQQKPGQSPKLLIYSASYRFIGVPDRFTGSGSGTGFTFTISSVQAEDLAVYYCQQHYTTPLTFGAGTKLELK
notes: also called GPN-48 Fab2

Experiments:
[1] = target: T1, full-length untagged human GPNMB …; assay: cell-based or functional assay
[2] = target: T1, full-length untagged human GPNMB …; assay: cell-based or functional assay; remark: listed apart in the source
[3] = target: T1, full-length untagged human GPNMB …; assay: cell-based or functional assay; remark: listed apart in the source
[4] = target: T2, soluble human GPNMB (recombinant …); assay: SPR Biacore, IgG captured
Method: (§1) Binding kinetics of the humanized and affinity matured anti-GPNMB antibodies described above were evaluated using the Biacore T200 (Cytiva). Briefly, IgGs were diluted to 10 μg/mL and captured using a Protein A/G (ThermioFisher, #21186) surface on a CM5 chip that was prepared by amine coupling according to the instrument manufacturer's recommendations. The captured antibodies were tested for their ability to bind human, cynomolgus monkey, and mouse GPNMB recombinant proteins as follows.
(§2) Human, cynomolgus, and mouse GPNMB analytes were diluted in running buffer (HBS-EP+, Teknova, #8022, with 0.5 mg/ml BSA, MP Biomedicals LLC, #820451), to a concentration of 300 nM, then diluted 3-fold serially to 100 nM, 33 nM, and 11 nM. Each sample was injected for 2 minutes to allow association, followed by dissociation in buffer alone for 10 minutes. Each sample injection was followed by the regeneration of the chip with three 30-second injections of 10 mM glycine, pH 1.7. Fresh antibody was captured at the beginning of each cycle.
(§3) Data were analyzed using Biacore evaluation software to generate kinetic constants. The equilibrium dissociation constants (KD) were calculated from the fitted association and dissociation rate constants (k-on and k-off) for each of the anti-GPNMB antibodies.

[5] = target: T3, soluble cynomolgus GPNMB (recombinant …); assay: SPR Biacore, IgG captured
Method: as §1, §2, §3

[6] = target: T1, full-length untagged human GPNMB …; assay: FACS titration, FS293-huGPNMB+ cells
Method: Affinity matured anti-GPNMB antibodies of the present disclosure were examined to determine their ability to bind human and mouse GPNMB expressed on FS293-huGPNMB+ or B16F10 cells, respectively. Cell-based affinity measurements were performed to ascertain the apparent affinities of anti-GPNMB antibodies to cell-surface expressed GPNMB. Serial dilutions of anti-GPNMB antibodies of the present disclosure were added to 100,000 FS293-huGPNMB+ or B16F10 cells and allowed to achieve binding equilibrium at 4° C. After addition of fluorescently labeled secondary antibody and brief washing steps, MFI values as a function of titrated antibody concentration were recorded via FACS analysis. Equilibrium binding curves were fit using nonlinear regression analysis with Graphpad Prism 6 software.

[7] = target: T4, soluble mouse GPNMB (recombinant …); assay: SPR Biacore T200, IgG captured on Protein A/G; nb = no binding observed
[8] = target: T5, soluble mouse GPNMB-Fc polypeptide (Fc …); assay: FACS, Fab2 blocking moGPNMB-Fc binding to SVEC4-10 cells
Method: Purified recombinant Fab2 fragments of select anti-GPNMB antibodies of the present disclosure were produced through transient transfection and purified. Briefly, 2 ug/mL soluble mouse or human GPNMB-Fc diluted in binding buffer was pre-complexed with increasing concentrations of anti-GPNMB Fab2 fragments in 96-well plates. Subsequently, 100,000 SVEC4-10 cells were added per well and incubated on ice for 30 minutes. Soluble moGPNMB-Fc or huGPNMB-Fc bound to cell surface was detected with fluorescent anti-human IgG1 secondary antibody and measured on FACSCanto. IC50 and EC50 values based on changes in MFI values were calculated for each antibody.

| Binder | Inflammasome: Fold Decrease IL-1β (max response at 0.3 µg/ml) [1] | EC50 GCase [2] | Fold Increase GCase (max response at 1 µg/ml) [2] | EC50 PDL1 [3] | Fold Increase CD40 (max response at 1 µg/ml) [3] | Fold Increase PDL1 (max response at 1 µg/ml) [3] | Kd [4] | koff [4] | kon [4] | Kd [5] | koff [5] | kon [5] | EC50 [6] | binding result [7] | IC50 [8] |
| --- | --- | --- | --- | --- | --- | --- | --- | --- | --- | --- | --- | --- | --- | --- | --- |
| B1 | 0.476 fold | 0.22 nM | 1.36 fold | 0.75 nM | 1.73 fold | 2.05 fold | 6.7 nM | 0.00054 s⁻¹ | 81000 M⁻¹ s⁻¹ | 8.2 nM | 0.00065 s⁻¹ | 79000 M⁻¹ s⁻¹ | 0.546 nM | no binding (tested: 300 nM highest analyte concentration) |  |
| B2 | 0.664 fold | 0.25 nM | 1.39 fold | 1.24 nM | 1.71 fold | 1.97 fold | 11.9 nM | 0.00091 s⁻¹ | 76000 M⁻¹ s⁻¹ | 14.6 nM | 0.0011 s⁻¹ | 74000 M⁻¹ s⁻¹ | 0.407 nM | no binding (tested: 300 nM highest analyte concentration) |  |
| B3 |  |  |  |  |  |  |  |  |  |  |  |  |  |  | 3.19 nM |
| B4 |  |  |  |  |  |  |  |  |  |  |  |  |  |  | 9.42 nM |
| B5 |  |  |  |  |  |  |  |  |  |  |  |  |  |  | 2.33 nM |
